This is an account of results in patent publication US20040191303A1, “Use of selectin-binding pregnancy proteins, liposomes, native mucin fragments and mimetic compounds for the treatment and prophylaxis inflammatory diseases, for preventing metastatic spread and for the prophylaxis of tumour diseases” (priority 2000, published 2004).

B1: Serum PP14: gestation protein pp14 from serum of pregnant women (protein, UniProt P09466 19-180, looked up)
Glycodelin: MDIPQTKQDLELPKLAGTWHSMAMATNNISLMATLKAPLRVHITSLLPTPEDNLEIVLHRWENNSCVEKKVLGEKTENPKKFKINYTVANEATLLDTDYDNFLFLCLQDTTTPIQSMMCQYLARVLVEDDEIMQGFIRAFRPLPRHLWYLLDLKQMEEPCRF
B2: Urinary PP14: gestation protein pp14 from urine of pregnant women (protein, UniProt P09466 19-180, looked up)
Glycodelin: B1 Glycodelin
B3: Amniotic ✓-fetoprotein: α-fetoprotein from the amniotic fluid (protein, UniProt P02771 19-609, looked up)
Alpha-fetoprotein: RTLHRNEYGIASILDSYQCTAEISLADLATIFFAQFVQEATYKEVSKMVKDALTAIEKPTGDEQSSGCLENQLPAFLEELCHEKEILEKYGHSDCCSQSEEGRHNCFLAHKKPTPASIPLFQVPEPVTSCEAYEEDRETFMNKFIYEIARRHPFLYAPTILLWAARYDKIIPSCCKAENAVECFQTKAATVTKELRESSLLNQHACAVMKNFGTRTFQAITVTKLSQKFTKVNFTEIQKLVLDVAHVHEHCCRGDVLDCLQDGEKIMSYICSQQDTLSNKITECCKLTTLERGQCIIHAENDEKPEGLSPNLNRFLGDRDFNQFSSGEKNIFLASFVHEYSRRHPQLAVSVILRVAKGYQELLEKCFQTENPLECQDKGEEELQKYIQESQALAKRSCGLFQKLGEYYLQNAFLVAYTKKAPQLTSSELMAITRKMAATAATCCQLSEDKLLACGEGAADIIIGHLCIRHEMTPVNPGVGQCCTSSYANRRPCFSSLVVDETYVPPAFSDDKFIFHKDLCQAQGVALQTMKQEFLINLVKQKPQITEEQLEAVIADFSGLLEKCCQGQEQEVCFAEEGQKLISKTRAALGV
B4: Urinary ✓-fetoprotein: α-fetoprotein from urine (protein, UniProt P02771 19-609, looked up)
Alpha-fetoprotein: B3 Alpha-fetoprotein
B5: Serum ✓-fetoprotein: α-fetoprotein from the serum of pregnant women (protein, UniProt P02771 19-609, looked up)
Alpha-fetoprotein: B3 Alpha-fetoprotein

In one assay the test system is cell adhesion. Put plainly: Testing of gestation proteins from various sources as adhesion blocker. Format: cell-based.
Details: not given
The text has this: Testing of Gestation Proteins from Various Sources as Adhesion Blocker
The trophoblast culture line has been purchased and not subjected to genetic engineering.
As to “Serum Transferrin: transferrin from serum”, the Adhesion blocking result is on record as “No”.

In the case of “Amniotic transferrin: transferrin recovered from the amniotic fluid”, the Adhesion blocking result is listed as “Yes”.

In the case of B1, the Adhesion blocking entry is “Yes”.

In the case of B2, the Adhesion blocking result is reported as “Yes”.

On to B3, for which the Adhesion blocking result is given as “Yes”.

With B4, the Adhesion blocking result is listed as “No”.

As to B5, the Adhesion blocking entry is on record as “Yes”.

Another assay deals with activated HUVEC. Put plainly: Adhesion inhibition test: HepG2 hepatoma cells to IL-1β activated HUVEC. In kind it is cell-based, human. The settings on record: HepG2 cell adhesion.
Method: The adhesion test described below is used in vitro to test the active substances.
HUVECs are isolated from veins of fresh human umbilical cords, used up to the 3rd passage, and cultured to confluence in 96-well titer plates for testing. Expression on HUVEC is induced by adding 0.2 ng of IL-1β per well, reaching its maximum after 4 hours. At this point, an adhesion test/adhesion inhibition test analogous to the one for immobilized E-selectin is performed.
The IC50 values (concentration of inhibiting agent for 50% inhibition of adhesion) are indicated.
As to sialyl-Lewis x [sLe^x], 2300 µM corresponded to half-maximal inhibition (IC50).
